Laboratory results reported in US20160264649A1.

How the values were obtained:
Assay in all cases: cell-based or functional assay
[1] = target: HIV-1 92UG031 Env (HIV-1)
[2] = target: HIV-1 MGRM-A-004 Env (HIV-1)
[3] = target: HIV-1 MGRM-A-007 Env (HIV-1)
[4] = target: HIV-1 MGRM-A-008 Env (HIV-1)
[5] = target: HIV-1 MGRM-A-009 Env (HIV-1)
[6] = target: HIV-1 MGRM-A-012 Env (HIV-1)
[7] = target: HIV-1 92UG024 Env (HIV-1)
[8] = target: HIV-1 92UG046 Env (HIV-1)
[9] = target: HIV-1 93IN905 Env on pseudovirus (HIV-1)
[10] = target: HIV-1 93MW959 Env on pseudovirus (HIV-1)
[11] = target: HIV-1 93TH305 Env on pseudovirus (HIV-1)
[12] = target: HIV-1 98CN006 Env on pseudovirus (HIV-1)
[13] = target: HIV-1 98IN022 Env on pseudovirus (HIV-1)
[14] = target: HIV-1 APV_6 Env on pseudovirus (HIV-1)
[15] = target: HIV-1 CMU02 Env (HIV-1)
[16] = target: HIV-1 IAVI-C18 Env (HIV-1)
[17] = target: HIV-1 JRCSF Env (HIV-1) (UniProt P20871)
[18] = target: HIV-1 LAVIC_18 Env on pseudovirus (HIV-1)
[19] = target: HIV-1 MGRM-AE-003 Env (HIV-1)
[20] = target: HIV-1 MGRM-AE-007 Env (HIV-1)
[21] = target: HIV-1 MGRM-AE-008 Env (HIV-1)
[22] = target: HIV-1 MGRM-C-007 Env on pseudovirus (HIV-1)
[23] = target: HIV-1 MGRM-C-008 Env on pseudovirus (HIV-1)
[24] = target: HIV-1 MGRM-C-009 Env on pseudovirus (HIV-1)
[25] = target: HIV-1 MGRM-C-013 Env on pseudovirus (HIV-1)
[26] = target: HIV-1 MGRM-C-022 Env on pseudovirus (HIV-1)
[27] = target: HIV-1 MGRM-Chronic-B-003 Env on pseudovirus (HIV-1)
[28] = target: HIV-1 MGRM-Chronic-B-008 Env on pseudovirus (HIV-1)
[29] = target: HIV-1 MGRM-Chronic-B-012 Env on pseudovirus (HIV-1)
[30] = target: HIV-1 MGRM-D-004 Env (HIV-1)
[31] = target: HIV-1 MGRM-D-011 Env (HIV-1)
[32] = target: HIV-1 MGRM-D-012 Env (HIV-1)
[33] = target: HIV-1 MGRM-D-013 Env (HIV-1)
[34] = target: HIV-1 MGRM-D-016 Env (HIV-1)
[35] = target: HIV-1 MGRM-D-026 Env (HIV-1)
[36] = target: HIV-1 MGRM-D-028 Env (HIV-1)
[37] = target: HIV-1 MGRM-F1-004 Env (HIV-1)
[38] = target: HIV-1 MGRM-F1-008 Env (HIV-1)
[39] = target: HIV-1 MGRM-F1-016 Env (HIV-1)
[40] = target: HIV-1 MGRM-F1-022 Env (HIV-1)
[41] = target: HIV-1 MGRM-F1-023 Env (HIV-1)
[42] = target: HIV-1 MGRM-G-004 Env (HIV-1)
[43] = target: HIV-1 MGRM-G-006 Env (HIV-1)
[44] = target: HIV-1 MGRM-G-009 Env (HIV-1)
[45] = target: HIV-1 MGRM-G-013 Env (HIV-1)
[46] = target: HIV-1 MGRM-G-017 Env (HIV-1)
[47] = target: HIV-1 SC422661.8 (Acute) Env on pseudovirus (HIV-1)
[48] = target: HIV-1 SF162 Env on pseudovirus (HIV-1) (UniProt P19550)
[49] = target: HIV-1 THR0.18 (Acute) Env on pseudovirus (HIV-1)
[50] = target: HIV-1 TRO.11 (Acute) Env on pseudovirus (HIV-1)
[51] = target: HIV-1 VLGCB3 Env on pseudovirus (HIV-1)
[52] = target: aMLV envelope (negative control pseudovirus)

Sequence of 1443_C16 (PG16) (TCN-116) (antibody) (VH): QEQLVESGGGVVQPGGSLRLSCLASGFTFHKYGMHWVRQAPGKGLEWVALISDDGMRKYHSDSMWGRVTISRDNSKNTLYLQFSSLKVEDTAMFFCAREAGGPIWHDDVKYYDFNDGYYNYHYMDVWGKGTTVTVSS
Sequence of 1443_C16 (PG16) (TCN-116) (antibody) (VL): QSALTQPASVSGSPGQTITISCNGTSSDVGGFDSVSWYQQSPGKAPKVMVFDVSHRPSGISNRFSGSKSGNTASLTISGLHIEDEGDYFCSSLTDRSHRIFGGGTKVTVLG

Substance: 1443_C16 (PG16) (TCN-116) (antibody)
- neutralization IC50 [1]: 0.43 µg/mL
- neutralization IC50 [2]: 0.04 µg/mL
- neutralization IC50 [3]: 5.91 µg/mL
- neutralization IC50 [4]: > 50 µg/mL
- neutralization IC50 [5]: 0.01 µg/mL
- neutralization IC50 [6]: 20.7 µg/mL
- IC50 (µg/ml), pseudovirus neutralization [7]: 24 µg/mL
- neutralization IC50 [7]: > 50 µg/mL
- neutralization IC90 [7]: > 50 µg/mL
- IC50 (µg/ml), pseudovirus neutralization [8]: 1.42 µg/mL
- IC50 [9]: 0.25 µg/mL
- IC50 [10]: 0.007 µg/mL
- IC50 [11]: 19.3 µg/mL
- IC50 [12]: > 50 µg/mL
- IC50 [13]: 0.003 µg/mL
- IC50 [14]: 0.29 µg/mL
- IC50 (µg/ml), pseudovirus neutralization [15]: 43.6 µg/mL
- neutralization IC50 [15]: > 50 µg/mL
- neutralization IC90 [15]: > 50 µg/mL
- neutralization IC50 [16]: 0.0067 µg/mL
- neutralization IC90 [16]: 0.207 µg/mL
- neutralization IC50 [17]: < 0.0025 µg/mL
- neutralization IC90 [17]: 0.013 µg/mL
- IC50 [18]: 0.02 µg/mL
- IC50 (µg/ml), pseudovirus neutralization [19]: 0.03 µg/mL
- IC50 (µg/ml), pseudovirus neutralization [20]: 0.04 µg/mL
- IC50 (µg/ml), pseudovirus neutralization [21]: 3.25 µg/mL
- IC50 [22]: 0.05 µg/mL
- IC50 [23]: > 50 µg/mL
- IC50 [24]: > 50 µg/mL
- IC50 [25]: > 50 µg/mL
- IC50 [26]: 0.25 µg/mL
- IC50 [27]: 0.19 µg/mL
- IC50 [28]: 0.73 µg/mL
- IC50 [29]: 3.74 µg/mL
- IC50 (µg/ml), pseudovirus neutralization [30]: 0.01 µg/mL
- IC50 (µg/ml), pseudovirus neutralization [31]: 0.01 µg/mL
- IC50 (µg/ml), pseudovirus neutralization [32]: 0.35 µg/mL
- IC50 (µg/ml), pseudovirus neutralization [33]: 0.11 µg/mL
- IC50 (µg/ml), pseudovirus neutralization [34]: 0.02 µg/mL
- IC50 (µg/ml), pseudovirus neutralization [35]: > 50 µg/mL
- IC50 (µg/ml), pseudovirus neutralization [36]: > 50 µg/mL
- IC50 (pseudovirus neutralization) [37]: 0.43 µg/mL
- IC50 (pseudovirus neutralization) [38]: > 50 µg/mL
- IC50 (pseudovirus neutralization) [39]: 1.12 µg/mL
- IC50 (pseudovirus neutralization) [40]: 0.08 µg/mL
- IC50 (pseudovirus neutralization) [41]: > 50 µg/mL
- IC50 (µg/ml), pseudovirus neutralization [42]: > 50 µg/mL
- IC50 (µg/ml), pseudovirus neutralization [43]: 2.42 µg/mL
- IC50 (µg/ml), pseudovirus neutralization [44]: > 50 µg/mL
- IC50 (µg/ml), pseudovirus neutralization [45]: > 50 µg/mL
- IC50 (µg/ml), pseudovirus neutralization [46]: 0.02 µg/mL
- IC50 [47]: 1.13 µg/mL
- IC50 [48]: > 50 µg/mL
- IC50 [49]: 1.34 µg/mL
- IC50 [50]: 0.22 µg/mL
- IC50 [51]: 0.4 µg/mL
- IC50 (pseudovirus neutralization) [52]: > 50 µg/mL

Substance: 1495_C14 (PGC14) (antibody)
- neutralization IC50 [1]: > 50 µg/mL
- neutralization IC50 [2]: > 50 µg/mL
- neutralization IC50 [3]: > 50 µg/mL
- neutralization IC50 [4]: > 50 µg/mL
- neutralization IC50 [5]: > 50 µg/mL
- neutralization IC50 [6]: > 50 µg/mL
- IC50 (µg/ml), pseudovirus neutralization [7]: > 50 µg/mL
- neutralization IC50 [7]: > 50 µg/mL
- IC50 (µg/ml), pseudovirus neutralization [8]: > 50 µg/mL
- IC50 [9]: 19 µg/mL
- IC50 [10]: > 50 µg/mL
- IC50 [11]: 6 µg/mL
- IC50 [12]: > 50 µg/mL
- IC50 [13]: 9 µg/mL
- IC50 [14]: 23 µg/mL
- IC50 (µg/ml), pseudovirus neutralization [15]: > 50 µg/mL
- neutralization IC50 [15]: > 50 µg/mL
- neutralization IC50 [16]: > 50 µg/mL
- neutralization IC50 [17]: > 50 µg/mL
- IC50 [18]: > 50 µg/mL
- IC50 (µg/ml), pseudovirus neutralization [19]: > 50 µg/mL
- IC50 (µg/ml), pseudovirus neutralization [20]: > 50 µg/mL
- IC50 (µg/ml), pseudovirus neutralization [21]: > 50 µg/mL
- IC50 [22]: > 50 µg/mL
- IC50 [23]: > 50 µg/mL
- IC50 [24]: > 50 µg/mL
- IC50 [25]: > 50 µg/mL
- IC50 [26]: > 50 µg/mL
- IC50 [27]: > 50 µg/mL
- IC50 [28]: > 50 µg/mL
- IC50 [29]: > 50 µg/mL
- IC50 (µg/ml), pseudovirus neutralization [30]: > 50 µg/mL
- IC50 (µg/ml), pseudovirus neutralization [31]: > 50 µg/mL
- IC50 (µg/ml), pseudovirus neutralization [32]: > 50 µg/mL
- IC50 (µg/ml), pseudovirus neutralization [33]: > 50 µg/mL
- IC50 (µg/ml), pseudovirus neutralization [34]: > 50 µg/mL
- IC50 (µg/ml), pseudovirus neutralization [35]: > 50 µg/mL
- IC50 (µg/ml), pseudovirus neutralization [36]: > 50 µg/mL
- IC50 (pseudovirus neutralization) [37]: > 50 µg/mL
- IC50 (pseudovirus neutralization) [38]: > 50 µg/mL
- IC50 (pseudovirus neutralization) [39]: > 50 µg/mL
- IC50 (pseudovirus neutralization) [40]: > 50 µg/mL
- IC50 (pseudovirus neutralization) [41]: > 50 µg/mL
- IC50 (µg/ml), pseudovirus neutralization [42]: > 50 µg/mL
- IC50 (µg/ml), pseudovirus neutralization [43]: > 50 µg/mL
- IC50 (µg/ml), pseudovirus neutralization [44]: > 50 µg/mL
- IC50 (µg/ml), pseudovirus neutralization [45]: > 50 µg/mL
- IC50 (µg/ml), pseudovirus neutralization [46]: > 50 µg/mL
- IC50 [47]: > 50 µg/mL
- IC50 [48]: < 0.0025 µg/mL
- IC50 [49]: > 50 µg/mL
- IC50 [50]: > 50 µg/mL
- IC50 [51]: 21 µg/mL
- IC50 (pseudovirus neutralization) [52]: > 50 µg/mL
